In patent US20170292963A1 one finds BACE1 internalized within 12 min and hAβ40 in media of hAPP/NPTX1-/- neurons compared to hAPP neurons (ELISA) data, which are given here for one substance.

The target of the test is Mouse BACE1 (beta amyloid precursor protein cleavage enzyme 1), native protein in mouse brain lysate or neurons (mouse) (UniProt P56818). The test is described as follows: cell-based or functional assay.
Sequence of Mouse BACE1 (beta amyloid precursor protein cleavage enzyme 1), native protein in mouse brain lysate or neurons (mouse) (P56818 46-501 limits assumed): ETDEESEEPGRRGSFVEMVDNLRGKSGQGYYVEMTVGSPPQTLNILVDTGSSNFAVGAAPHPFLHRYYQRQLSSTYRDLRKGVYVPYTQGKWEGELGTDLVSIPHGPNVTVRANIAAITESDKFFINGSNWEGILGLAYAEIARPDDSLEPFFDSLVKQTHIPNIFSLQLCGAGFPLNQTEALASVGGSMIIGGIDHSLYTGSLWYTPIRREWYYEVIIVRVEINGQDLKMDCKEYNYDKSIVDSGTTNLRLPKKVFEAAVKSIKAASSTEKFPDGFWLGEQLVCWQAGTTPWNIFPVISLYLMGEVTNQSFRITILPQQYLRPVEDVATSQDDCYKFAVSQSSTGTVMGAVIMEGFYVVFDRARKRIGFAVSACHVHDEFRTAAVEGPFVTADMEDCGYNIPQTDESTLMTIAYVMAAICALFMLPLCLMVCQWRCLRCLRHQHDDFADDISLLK

“Mouse NPTX1 (Neuronal Pentraxin 1), native protein in mouse brain lysate or neurons (from UniProt Q62443 23-432)”: the BACE1 internalized within 12 min at 37 C as percent of surface expression, NPTX1-/- neurons (surface biotinylation assay) turned out to be 95%; the BACE1 internalized within 12 min at 37 C as percent of surface expression, WT neurons (surface biotinylation assay) is 37.5%; the hAβ40 in media of hAPP/NPTX1-/- neurons compared to hAPP neurons (ELISA) was found to be 2 fold.
